Measurements as given in patent US20190375835A1.

Legend:
[1] = target: macrophages (FcR); assay: cell-based or functional assay
[2] = target: soluble TNF-alpha (UniProt P01375); assay: cell-based or functional assay
Chain of soluble TNF-alpha (P01375 77-233 limits assumed): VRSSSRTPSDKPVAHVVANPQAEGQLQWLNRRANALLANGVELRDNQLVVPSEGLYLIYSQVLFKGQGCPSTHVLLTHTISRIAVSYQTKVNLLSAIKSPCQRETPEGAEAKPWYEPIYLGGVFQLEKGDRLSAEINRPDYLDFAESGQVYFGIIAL

| Substance | phagocytosis (MFI 37°C - MFI 4°C) in the presence of IVIg 1 mg/ml [1] | phagocytosis value (MFI 37°C - MFI 4°C, arbitrary unit) [2] |
| --- | --- | --- |
| transgenically produced adalimumab antibody (purified from the milk of transgenic goats, glycosylated) | 13.3 MFI | 15 MFI |
| Humira antibody from Abbott (commercial adalimumab) | 6.72 MFI | 12.5 MFI |
